# Source: patent US20030082638A1, “Methods for screening osteogenic compounds” (priority 2001, published 2003)
# B1: GST-RANKL: fusion protein of glutathione S-transferase (GST) and murine RANKL residues 158-316, expressed in Escherichia coli, affinity purified (protein)
# chain: KPEAQPFAHLTINAASIPSGSHKVTLSSWYHDRGWAKISNMTLSNGKLRVNQDGFYYLYANICFRHHETSGSVPTDYLQLMVYVVKTSIKIPSSHNLMKGGSTKNWSGNSEFHFYSINVGGFFKLRAGEEISIQVSNPSLLDPDQDATYFGAFKVQDID
# modifications: left off: a dimerising Fc or GST
# How the values were obtained:
# [1] = system: Neo-natal mouse calvariae; experiment: Ex vivo stimulation of bone formation in whole calvarial organ culture; type: cell-based
# Procedure: One commonly used assay is a neonatal mouse calvaria assay. Briefly, four days after birth, the front and parietal bones of ICR Swiss white mouse pups are removed by microdissection and split along the sagittal suture. The bones are then incubated in a specified medium, wherein the medium contains either test or control compounds. Following the incubation, the bones are removed from the media, and fixed in 10% buffered formalin for 24-48 hours, decalcified in 14% EDTA for 1 week, processed through graded alcohols, and embedded in paraffin wax. Three micron sections of the calvaria are prepared and assessed using histomorphometric analysis of bone formation or bone resorption. Bone changes are measured on sections cut 200 microns apart. […]
# Ex vivo stimulation of bone formation in whole calvarial organ culture. […] Purified GST-RANKL was then assayed for endotoxin contamination by limulus amoebocyte lysate assay, and quantitated for bioactivity by an in vitro osteoclastogenesis readout.
# Test compositions were administered for-a period of 12 hours only at the initiation of the culture (1×) or once at initiation and once three days later, again for a duration of 12 hours (2×). After seven days, calvarial thickness was determined histomorphometrically and compared among the various control and experimental groups to assess bone formation. […]
# [2] = system: Mice, C3H/HeN; experiment: In vivo stimulation of bone formation in mice, subcutaneous administration; parameters: species or system mouse; settings: 100 micrograms subcutaneously once a day for nine days, vs GST control
# Procedure: In vivo stimulation of bone formation in mice. Mice, C3H/HeN (Harlan, Indianapolis, Ind.) were administered 100 micrograms GST (control) or 100 micrograms GST-RANKL as obtained in Example 1, subcutaneously, once a day for nine days. […] Upper panels illustrate metaphyseal bone, which is shown at higher magnification in lower panels. […] Dual-energy X-ray absorptiometry (DEXA) analysis of GST or GST-RANKL administered mice was also conducted using standard procedures.
# [3] = system: Primary calvarial osteoblasts; experiment: Alkaline phosphatase (AP) activity in osteoblasts following GST-RANKL exposure; type: cell-based; settings: 50 ng/ml
# Procedure: AP activity following RANKL exposure in osteoblasts. Primary calvarial osteoblasts were cultured in MEM containing 15% FBS, 50 μM ascorbic acid, and 10 mM β-glycerophosphate. Cells were maintained at 37° C., with daily replenishment of media and cytokines. Osteoblast alkaline phosphatase (AP) activity, a direct measure of osteoblast differentiation and function, was quantitated by addition of a calorimetric substrate, 5.5 mM p-nitrophenyl phosphate. The cells were then exposed to GST-RANKL, administered in different regimens. Pulsatile exposure to 50 ng/ml GST-RANKL was provided as 1, 3, 6, 8, or 24 hours of total exposure per 48-hour treatment window. After 4 such 48-hour treatments, AP activity was quantitated (±S.D.) and normalized to total protein levels.
# [4] = system: ERK; experiment: Western blot of ERK phosphorylation in murine osteoclast precursors; type: cell-based
# Procedure: (§1) GST-RANKL rapidly activates MAP kinases in murine osteoclast precursors. Wild type C57BL/6 mice were purchased from Harlan Industries (Indianapolis, Ind.). For the isolation of osteoclast precursors, bone marrow macrophages (BMMs) were isolated from whole bone marrow of four to six week old mice and incubated in tissue culture dishes at 37° C. in 5% CO2. After 24 hours in culture, the non-adherent cells were collected and layered on a Ficoll Hypaque gradient and the cells at the gradient interface were collected. Cells were replated at 65,000/cm^2 in α-minimal essential medium, supplemented with 10% heat inactivated fetal bovine serum, at 37° C. in 5% CO2 in the presence of recombinant mouse M-CSF (10 ng.ml). Cells were treated with GST-RANKL on day 4 or 5. In the experiments addressing the activation of Akt, the cells were cultured in serum and M-CSF free medium for 24 hours prior to GST-RANKL stimulation.
# (§2) Immunoblotting (Western blotting) of osteoclast precursors was performed according to the following instructions. Cytokine-treated or control monolayers of BMMs were washed twice with ice-cold PBS. Cells were lysed in the buffer containing 20 mM Tris (pH 7.5),150 mM NaCl, 1 mM EDTA, 1 mM EGTA, 1% Triton X-100, 2.5 mM sodium pyrophoshate, 1 mM β-glycerophosphate, 1 mM Na3PO4, 1 mM NaF, and 1×protease inhibitor cocktail. Fifty μg of cell lysates were boiled in the presence of SDS sample buffer (0.5 M Tris-HCl, pH 6.8, 10% w/v SDS, 10% glycerol, 0.05% w/v bromphenol blue) for 5 minutes and separated on SDS-PAGE, using 8% gels. Proteins were transferred to nitrocellulose membranes using a semi-dry blotter (Bio-Rad, Richmond, Calif.) and incubated in blocking solution (5% non-fat dry milk in tris-buffered saline containing 0.1% Tween 20) for 1 hour to reduce nonspecific binding. Membranes were then exposed to primary antibodies overnight at 4° C., washed three times, and incubated with secondary goat anti-mouse or rabbit IgG horseradish peroxidase-conjugated antibody for 1 hour. […]
# [5] = system: p38; experiment: Western blot of p38 phosphorylation in murine osteoclast precursors; type: cell-based
# Procedure: as §1, §2
# [6] = system: JNK; experiment: Western blot of JNK phosphorylation in murine osteoclast precursors; type: cell-based; settings: after GST-RANKL stimulation
# Procedure: as §1
# (§3) Immunoblotting (Western blotting) of osteoclast precursors was performed according to the following instructions. Cytokine-treated or control monolayers of BMMs were washed twice with ice-cold PBS. Cells were lysed in the buffer containing 20 mM Tris (pH 7.5),150 mM NaCl, 1 mM EDTA, 1 mM EGTA, 1% Triton X-100, 2.5 mM sodium pyrophoshate, 1 mM β-glycerophosphate, 1 mM Na3PO4, 1 mM NaF, and 1×protease inhibitor cocktail. […]
# [7] = system: Akt; experiment: Western blot of Akt phosphorylation in murine osteoclast precursors; type: cell-based
# Procedure: as §1, §3
# [8] = system: ERK; experiment: Western blot of ERK phosphorylation in murine osteoblasts; type: cell-based
# Procedure: (§4) GST-RANKL-induced activation of MAP kinases is prolonged in murine osteoblasts. Primary osteoblasts were isolated from neonatal murine calvaria by sequential enzymatic digestion. Briefly, calvaria were minced and incubated at room temperature for 20 minutes with gentle shaking in an enzymatic solution containing 0.1% collagenase, 0.05% trypsin, and 4 mM NA2EDTA in calcium- and magnesium-free phosphate buffered saline (PBS). This procedure was repeated to yield a total of six digests. The cells isolated from the last four to six digests were cultured in MEM containing 15% FBS, 50 μM ascorbic acid, and 10 mM β-glycerophosphate. Cells were maintained at 37° C. in a humidified atmosphere containing 6% C02, with daily replenishment of media and cytokines.
# (§5) Following treatment with GST-RANKL at the indicated times and dosages, cells were lysed in RIPA buffer containing 10 mM Tris-HCl pH 7.4, 150 mM NaCl, 1% Nonidet P-40, 0.2% sodium deoxycholate, and 1 mM EDTA, with 1 mM Na3PO4, 1 mM NaF, and 1×protease inhibitor cocktail added immediately prior to use. Protein concentration was quantitated and standardized by Micro BCA Protein Assay (Pierce). Lysates were denatured by heat in Laemmli buffer, resolved by SDS-PAGE, and transferred onto nitrocellulose. Levels of total and phosphorylated ERK, JNK, p38, Akt, and IkBα were determined using primary and secondary antibodies according to the manufacturer's established protocols, with conventional chemiluminiscent detection. Membranes were stripped between hybridizations in PBS containing 10 μM β-mercaptoethanol and 2% SDS.
# [9] = system: JNK; experiment: Western blot of JNK phosphorylation in murine osteoblasts; type: cell-based
# Procedure: as §4
# as §5, with “Lysates were denatured by heat in Laemmli buffer, resolved by SDS-PAGE, and transferred onto nitrocellulose.” left out, “Membranes were stripped between hybridizations in PBS containing 10 μM β-mercaptoethanol and 2% SDS.” left out
# [10] = system: p38; experiment: Western blot of p38 phosphorylation in murine osteoblasts; type: cell-based
# Procedure: as §4
# as §5, with “Lysates were denatured by heat in Laemmli buffer, resolved by SDS-PAGE, and transferred onto nitrocellulose.” left out, “Membranes were stripped between hybridizations in PBS containing 10 μM β-mercaptoethanol and 2% SDS.” left out
# [11] = system: Akt; experiment: Western blot of Akt phosphorylation in murine osteoblasts; type: cell-based
# Procedure: as §4
# as §5, with “Lysates were denatured by heat in Laemmli buffer, resolved by SDS-PAGE, and transferred onto nitrocellulose.” left out, “Membranes were stripped between hybridizations in PBS containing 10 μM β-mercaptoethanol and 2% SDS.” left out
# [12] = system: IkBα; experiment: Western blot of IkBα phosphorylation in murine osteoblasts; type: cell-based
# Procedure: as §4
# as §5, with “Lysates were denatured by heat in Laemmli buffer, resolved by SDS-PAGE, and transferred onto nitrocellulose.” left out, “Membranes were stripped between hybridizations in PBS containing 10 μM β-mercaptoethanol and 2% SDS.” left out
# [13] = system: ERK1/2; experiment: Western blot of ERK1/2 activation in murine osteoblast precursors; type: cell-based
# Procedure: as §4, §5
# GST-RANKL-induced ERk1/2 activation is prolonged in murine osteoblast precursors. Osteoblast precursors were isolated and maintained according to the procedures set forth in Example 5. The immunoblotting was performed in the same manner as immunoblotting in Example 3.
# [14] = system: c-Fos; experiment: Western blot of c-Fos activation following GST-RANKL treatment of cells; type: cell-based; settings: osteoblasts and osteoblast precursor cells; FIG. 9, 0-120 minutes
# Procedure: Time points at which activation was measured were 0, 30, 60 and 120 minutes following exposure of cells to GST-RANKL. B-actin was used as a control.
# [15] = system: Mice; experiment: In vivo stimulation of bone formation in mice, intramedullary femur injection, DEXA; parameters: species or system mouse; settings: 100 micrograms intramedullary once a day for nine days; versus GST control; day 9
# Procedure: In vivo stimulation of bone formation in mice results in 24% increase. Mice were anesthetized with a Ketamine/Xylazine cocktail (10 mg/kg ketamine and 10 mg/kg xylazine IP) and placed in left lateral recumbancy. The major trochanter and lateral femoral condyle of the right femur were identified and the intramedullary injection site was equidistant between these landmarks. Injections of 100 micrograms GST (control) or 100 micrograms GST-RANKL were made once a day for nine days with 29 gauge needles on tuberculin syringes.
# On day 9 the mice were re-anesthetized with Ketamine/Xylazine cocktail (10 mg/kg ketamine and 10 mg/kg xylazine IP) and dual energy x-ray absorptiometry (DEXA, Piximus) analysis was done on each animal. Plain radiographs were taken immediately following DEXA analysis (Faxitron, KV 0.15, time=20 sec). Animals were sacrificed by CO2 asphyxiation and both femurs harvested for histological analysis. The femurs were fixed in 10% buffered formalin for 48 hours and decalcified for 1 week. The results, showing a 24% increase in bone density of the femur of GST-RANKL treated mice versus the control, are shown in FIG. 10.
# [16] = after RANK/GST-RANKL interaction
molecule,measurement,setting,value
B1,calvarial thickness at the highest dose tested,"[1]; 100 ng/ml, after seven days",doubled
same,calvarial thickness,"[1]; administered 1× or 2× for 12 hours, histomorphometry after seven days",dose-dependent increase
same,bone mineral density (DEXA),[2]; tibial metaphyses,significant increase
same,bone mass (histological examination of tibia),[2],marked increase
same,cortical thickness,[2],massive increase
same,numbers of activated osteoblasts (histological examination of tibia),[2],net increase
same,exposure window giving the maximum anabolic effect (AP activity),"[3]; 1, 3, 6, 8 or 24 hours exposure per 48-hour window, 4 treatments",8 h
same,AP activity,[3]; administered in an intermittent fashion,increase
same,time at which ERK phosphorylation was detected,[4]; after GST-RANKL stimulation,5 min
same,time of peak ERK phosphorylation,[4]; [16],10 min
same,time at which ERK phosphorylation was undetectable,[4]; after the interaction,30 min
same,time at which p38 phosphorylation was detected,[5]; after GST-RANKL stimulation,5 min
same,time of peak p38 phosphorylation,[5]; [16],10 min
same,time at which p38 phosphorylation was undetectable,[5]; after the interaction,30 min
same,time at which JNK was phosphorylated,[6],15 min
same,time by which phosphorylated JNK was undetectable,[6],≤ 30 min
same,Akt phosphorylation at the time of GST-RANKL stimulation,[7]; 0 minutes,detectable phosphorylation
same,time of peak Akt activation,[7]; after GST-RANKL stimulation,15 min
same,time at which ERK activation could still be detected,[8]; after GST-RANKL stimulation,60 min
same,time by which both ERKs were activated,[8]; after GST-RANKL stimulation,≤ 5 min
same,time of peak ERK activation,[8]; [16],10 min
same,JNK activation at the time of GST-RANKL stimulation,[9],detectable
same,duration for which JNK activation could be detected,[9]; after stimulation,at least 60 minutes
same,p38 activation at the time of GST-RANKL stimulation,[10],detectable
same,duration for which p38 activation could be detected,[10]; after stimulation,at least 60 minutes
same,Akt activation at the time of GST-RANKL stimulation,[11],detectable
same,duration for which Akt activation could be detected,[11]; after stimulation,at least 60 minutes
same,time until which IkBα phosphorylation increased (end of the assay),[12],60 min
same,time at which IkBα phosphorylation was detected,[12]; after stimulation,10 min
same,time of peak kinase activation as stated in the description,"[13]; osteoblast precursor cells, GST-RANKL stimulation",5 to 10 min
same,time up to which ERK activation increased (length of the assay),[13]; osteoblast precursors,60 min
same,time at which ERK activation was first detected,"[13]; osteoblast precursors, after GST-RANKL stimulation",10 min
same,activation of c-Fos,[14],prolonged activation
same,increase in bone density of the femur (DEXA),[15],24%
